The values below come from a protein production outcome set (Wang et al. 2014).

The data set is described as follows: label from the status in PepcDB records.
Consider “MKARQQKYCDKIANFWCHPTGKIIMSLAGKKIVLGVSGGIAAYKTPELVRRLRDRGADVRVAMTEAAKAFITPLSLQAVSGYPVSDSLLDPAAEAAMGHIELGKWADLVILAPATADLIARVAAGMANDLVSTICLATPAPVAVLPAMNQQMYRAAATQHNLEVLASRGLLIWGPDSGSQACGDIGPGRMLDPLTIVDMAVAHFSPVNDLKHLNIMITAGPTREPLDPVRYISNHSSGKMGFAIAAAAARRGANVTLVSGPVSLPTPPFVKRVDVMTALEMEAAVNASVQQQNIFIGCAAVADYRAATVAPEKIKKQATQGDELTIKMVKNPDIVAGVAALKDHRPYVVGFAAETNNVEEYARQKRIRKNLDLICANDVSQPTQGFNSDNNALHLFWQDGDKVLPLERKELLGQLLLDEIVTRYDEKNRR”, for which the protein production result was “failed”. As for “MKASCSSFTCQSADGKHFLGRTYDEYGDISANKVSIIPRGYEISLTFMGNKENNKQIVKYAIVGMNVDMFDTPFLTEGMNEHGLMISLLFFPHFTQYNSKSNAEYDVNLGLLLPFVLGKCKNIEEAVALLQKINPVDEPESQMELPCHYLISDKTGESIVVEPLADGLKIYRNEMGVLTNSPTYEWHKINLRNYLGISNLAKETQVVNGYKIEELGEGTGYLGIPGDYTPVSRFVRLAFSKNYMPEPQNEIDAVNKMFNIFETVDVPEGVIYTPPLRTPYHEKTLCTSVMCSESLKYYFSTSTNCRICCVDLNKAMNNNSKELINIDIPFEQDILTLN”, the entry is “failed”. As for “MKASELRNYTDEELKNLLEEKKRQLMELRFQLAMGQLKNTSLIKLTKRDIARIKTILRERELGIRR”, the protein production entry is recorded as “not failed”. As to “MKATTSLATSCRRLLLWGVLTLQCLFSTAQKRFTADVEQQAEKILSQMTLDEKLSYIGGINWMYTRPLERFGIPRLKMSDGPQGLGTHGPSTAYPCALMLAATWNEQLATEYGSALGKDCRARGVHVLLGPAVNIYRAPMCGRNFEYMGEDPYLTSRMATGYIKGVQGQGVMATIKHFIANNSDYDRDHISSDIDERTLNEIYFPSFRAAVQEAEVGAVMSSYNLLNGIYTTEHPWLLKDVLRQQWGFKGILMSDWGSTHHCIPAVKGGLDLEMPAGSKMQPEELKYYLRTGDITIETIDEKVRHILQTLLAFGFRETQQPDTHIPLKNPQCAQTALNVASEGLVLLKNTNQILPIRSGKVKTIAVVGKNAQGYVCGGGSGEVHPFQYVSVLDGIRKEAAERDIRVEYLDVYDYLPTIIFTDTERKQKGFRAQYFDNMNLEGTPKVEQTETKINYSWSGGTGLKEMPKEQFSVRWNGTICPQETDEYLFTLGGDDGYRLYIDGKLIADEWHEGAFRNSTYRCMLEAGKKYDLKIEYFQKGGGAAVNFIWKQKNASNNLFVEALNRNDLVVACIGFNSDTEGEGRDRTFELPEDEAQLLQNTLQSKRPVVGIVNAGGNVEMQSWEPSLKGLLWAWYGGQEAGTAIARTLFGELNPSGKLPITFEKRWEDNPTFHSYYDPDGDKHVEYAEGIFVGYRGYDKLKREVQYPFGYGLSYTRFKLSAPTVGTPKTDGSVTVTCKLTNTGRTAGAEVVQLYVSNKDTTVEHPEKELKGFRKVYLEPGETKSIEITVPAEAFSHYDTGSRRFVIDRGSHDILLGFSSRDIKAKMSVGISR”, the protein production entry is reported as “failed”. As for “MKAVIMAGGFGTRIQPLTSSIPKPMIPLLNRPIMLHIVELLKKYEITDLVMLLYHQPAVIKNFFRDGTDFGVKITYVTPLQDMGTAGAVKCAEKFLDERFLVISGDLLTDFNLQKIIDSHEDNKALATITLTSVKDPLQFGVVITDKEKRITQFLEKPGWGEVISDTINTGIYVFEPEIFAHIPEEENYDFSQDLFPKLLEQQKPLFGYTAKGYWRDIGNTDSYREAHHDIFKGKVNVKIDEAKQDLVGKDLRLGSDVNLDEHVTLEGTVVVGDNSQVFESAHIKDTVIGRNCTIEPGVRLNRCVIWDNVYVKKGAKLNDGVLCSNVRVGHGVVMEEGVIVADDTSIGEEAYIKRDVKIWPRKVIEAGATVTGNLIWGEKWKKSLFEGAMVKGLTNMELTPEFVAKLGCAYGTMLPKGSHIISGRDSYRSCRMLKRSFIGGLLSAGINVRDLTMVPMPVLRYKLRTFGEVGGIYFRQAIDDPASTEIVFLDGDGLDFSSSMGKNVERIFFKENFRRAHHTEPGALSEIPQQVTDFYREGFLHTIGKSPLQKKQFKVVIDFNHSSASQLLPGILTQMGCEVISLNAYVDEERGIQAVAERQQSLAQLSKIVATLEASAGFWLDPGTEGVIVVDETGKVYEGAELLPLMVGLALRSGEKGLFAVPVSAPSAIERMVQERGSAVTRTKSADRAMIEATLSSEVVLAGTMDGRFAFPKFQSAFDGMFAIAKTIELVAKGGLSISRVAAEIPQRVFLQTRVPCVWDMKGGIMRKMSEDSLDKEASFIDGIKVHFGEDWALVLPDQYLPYVHIVAEARDAKTAQKLLDEYKKKVEGWKRELQ”, the protein production entry is listed as “failed”. On to “MKAVKSERERGSRRRHRDGDVVLPAGVVVKQERLSPEVAPPAHRRPDHSGGSPSPPTSEPARSGHRGNRARGVSRSPPKKKNKASGRRSKSPRSKRNRSPHHSTVKVKQEREDHPRRGREDRQHREPSEQEHRRARNSDRDRHRGHSHQRRTSNERPGSGQGQGRDRDTQNLQAQEEEREFYNARRREHRQRNDVGGGGSESQELVPRPGGNNKEKEVPAKEKPSFELSGALLEDTNTFRGVVIKYSEPPEARIPKKRWRLYPFKNDEVLPVMYIHRQSAYLLGRHRRIADIPIDHPSCSKQHAVFQYRLVEYTRADGTVGRRVKPYIIDLGSGNGTFLNNKRIEPQRYYELKEKDVLKFGFSSREYVLLHESSDTSEIDRKDDEDEEEEEEVSDS”, for which the protein production result is given as “failed”. Take “MKAWVLKRLGGPLELVDLPEPEAEEGEVVLRVEAVGLNFADHLMRLGAYLTRLHPPFIPGMEVVGVVEGRRYAALVPQGGLAERVAVPKGALLPLPEGLSPEEAAAFPVSFLTAYLALKRAQARPGEKVLVQAAAGALGTAAVQVARAMGLRVLAAASRPEKLALPLALGAEEAATYAEVPERAKAWGGLDLVLEVRGKEVEESLGLLAHGGRLVYIGAAEGEVAPIPPLRLMRRNLAVLGFWLTPLLREGALVEEALGFLLPRLGRELRPVVGPVFPFAEAEAAFRALLDRGHTGKVVVRL”: the protein production result was “not failed”.

For the sequence “MKCHRVNELIELLHPAWQKEPDLNLVQFLQNLAQEAGFEGQLNELTDDILIYHLKMRDSDKEQVIPGLKKDYEEDFKTALLRARGVIKDLEHHHHHH”, the protein production entry is “not failed”.

In the case of “MKCKRLNEVIELLQPAWQKEPDFNLLQFLQKLAKESGFDGELADLTDDILIYHLKMRDSAKDAVIPGLQKDYEEDFKTALLRARGVIKELEHHHHHH”, the protein production result is on record as “not failed”. With “MKCNDKLAPFEVFDHVVNKKLSFRHVTMDDVDMLHSWMHEEHVIPYWKLNIPLVDYKKHLQTFLNDDHQTLMVGAINGVPMSYWESYWVKEDIIANYYPFEEHDQGIHLLIGPQEYLGQGLIYPLLLAIMQQKFQEPDTNTIVAEPDRRNKKMIHVFKKCGFQPVKEVELPDKIGLLMKCEQNVFEKRWSDWKMNKF” the entry was “not failed”; with “MKDVTIYHNPRCSKSRETLALVEQQGITPQVVLYLETPPSVDKLKELLQQLGFSDARQLMRTKEDLYKTLNLDDRGLTQDQLLQAMADNPKLIERPIVVTQGKARIGRPPEQVLEILK”, “not failed”. With “MKDYQKILVVVDPTTENQVALARAVTLASKSNAHVTVFLSIFDFSYEMTSILSSQEREAMRQGVIDQRVAWIQDLLAPYNHLGLNIDTQVIWHNRPFESIINHAIAGQYDLIVKGTHAHDKLKAVIFTPTDWHLMRKAPVPVLMVKDHDWPETGKILCAVNVATEDTDHQMLNGKIIEHAKDLAGKFAAEVHLVNGFPGTPVNLAIELPDFDAQTYNDTIRLQHEQRVQYLADAYGIDKQNCHVKEGLPEDVIPELAEQLDAELVILGTVGRTGFSAALIGNTAEHVIDSINCDLLAIKPDGYKSPLEEA” the entry was “not failed”; with “MKEDPRIIKTLSKLQKAFVMLLKTYDAGDINVRQISDEAGVTRGAFYSHFSDKKEFVNFTINELVGSLFNSSLKDSVGFVDEVNHKNAHGTNVLSVSNFFDKVAADYQTYTIVLDTEKLPQFTEVLKERLNSEIKTFAEYYGKKVKHDGFPIEVLSSYYVNGLIGMIRMWLDEGMVYTSHYMANAAKKILGTKIQIDSQNIDLSDFFVDLEHHHHHH”, “not failed”.
